In paper PMC7691434, “Interaction Analysis of a Plasmodium falciparum PHISTa-like Protein and PfEMP1 Proteins” (Frontiers in Microbiology, 2020):

B1: PF3D7_1372300-(27-129)-GST (domain or fragment)
chain: RNEIHKNSLGFGKNDNIYSRNLAQLKLSNYSLLKDSKFESVTEQLTREELYELFDLLVQVPPRTYLLNIWNHKNGICRQGTKDLLKNLRGIAPKLTYRHTGNT
notes: PF3D7_1372300, a PHIST/PHISTa-like protein of Plasmodium falciparum, residues 27-129; purified 'according to the methods described above'; also called PF3D7_1372300 (residues 27-129); source: E. coli BL21 (DE3), purified
B2: PF3D7_1372300-(27-129)-GST (domain or fragment)
chain: RNEIHKNSLGFGKNDNIYSRNLAQLKLSNYSLLKDSKFESVTEQLTREELYELFDLLVQVPPRTYLLNIWNHKNGICRQGTKDLLKNLRGIAPKLTYRHTGNT
notes: PF3D7_1372300, PHIST/PHISTa-like protein of Plasmodium falciparum, residues 27-129; source: E. coli BL21 (DE3), purified (according to the methods described for the other recombinant proteins)
B3: PF3D7_1372300 (27-206 aa)-GST (domain or fragment)
chain: RNEIHKNSLGFGKNDNIYSRNLAQLKLSNYSLLKDSKFESVTEQLTREELYELFDLLVQVPPRTYLLNIWNHKNGICRQGTKDLLKNLRGIAPKLTYRHTGNTNQYGKSPPKITWQGCSYDCNMMVSTLETEQTNRFYNLLNKKAPIDEIKSFIRSCIDEFDKLHTDLYVKYEKIFSEQK
notes: PF3D7_1372300, a PHIST/PHISTa-like protein of Plasmodium falciparum, residues 27-206 (without the 25-residue signal peptide), amplified from P. falciparum cDNA; the reverse primer carries a stop codon; also called PF3D7_1372300-GST; 1372300-GST; source: E. coli BL21 (DE3), purified
B4: PF3D7_1372300 (27-206 aa)-GST (domain or fragment)
chain: RNEIHKNSLGFGKNDNIYSRNLAQLKLSNYSLLKDSKFESVTEQLTREELYELFDLLVQVPPRTYLLNIWNHKNGICRQGTKDLLKNLRGIAPKLTYRHTGNTNQYGKSPPKITWQGCSYDCNMMVSTLETEQTNRFYNLLNKKAPIDEIKSFIRSCIDEFDKLHTDLYVKYEKIFSEQK
notes: PF3D7_1372300, PHIST/PHISTa-like protein of Plasmodium falciparum, residues 27-206 (without the 25 amino acid signal peptide), amplified from P. falciparum cDNA; Cloned into pGEX-4T-1; also called PF3D7_1372300-GST; PHIST/PHISTa-like protein; source: E. coli BL21 (DE3), purified
B5: PF3D7_1372300-(130-206)-GST (domain or fragment)
chain: NQYGKSPPKITWQGCSYDCNMMVSTLETEQTNRFYNLLNKKAPIDEIKSFIRSCIDEFDKLHTDLYVKYEKIFSEQK
notes: PF3D7_1372300, a PHIST/PHISTa-like protein of Plasmodium falciparum, residues 130-206; purified 'according to the methods described above'; also called PF3D7_1372300 (residues 130-206); source: E. coli BL21 (DE3), purified
B6: PF3D7_1372300-(130-206)-GST (domain or fragment)
chain: NQYGKSPPKITWQGCSYDCNMMVSTLETEQTNRFYNLLNKKAPIDEIKSFIRSCIDEFDKLHTDLYVKYEKIFSEQK
notes: PF3D7_1372300, PHIST/PHISTa-like protein of Plasmodium falciparum, residues 130-206; source: E. coli BL21 (DE3), purified (according to the methods described for the other recombinant proteins)

Tests used:
[1] = biological target: PF3D7_0800200 (ATS domain, 2,466-2,858 aa)-His (Plasmodium falciparum) (UniProt Q8IAK2); assay: BLI; Octet K2; ATS-His loaded onto Ni-NTA biosensors; GST-tagged analyte diluted from 1,000 to 62.5 nM in PBS with 0.02% Tween-20; association and dissociation 5 min each; non-linear global fit
[2] = biological target: T1, PF3D7_0800200 (acidic C-terminal segment (ATS) domain, 2,466-2,858 aa)-His (Plasmodium falciparum, UniProt Q8IAK2 2466-2858); assay: BLI; Octet K2 (ForteBio); ATS-His loaded onto Ni-NTA biosensors; GST-tagged protein in solution diluted from 1,000 to 62.5 nM in PBS with 0.02% Tween-20; association and dissociation 5 min each; non-linear global fit; KD calculated as Kdis/Kon; conditions: both partners purified
T1 construct: the reverse primer has no stop codon), which would give a C-terminal His tag; also called ATS-His; PfEMP1 ATS; source: E. coli BL21 (DE3), purified
T1 sequence: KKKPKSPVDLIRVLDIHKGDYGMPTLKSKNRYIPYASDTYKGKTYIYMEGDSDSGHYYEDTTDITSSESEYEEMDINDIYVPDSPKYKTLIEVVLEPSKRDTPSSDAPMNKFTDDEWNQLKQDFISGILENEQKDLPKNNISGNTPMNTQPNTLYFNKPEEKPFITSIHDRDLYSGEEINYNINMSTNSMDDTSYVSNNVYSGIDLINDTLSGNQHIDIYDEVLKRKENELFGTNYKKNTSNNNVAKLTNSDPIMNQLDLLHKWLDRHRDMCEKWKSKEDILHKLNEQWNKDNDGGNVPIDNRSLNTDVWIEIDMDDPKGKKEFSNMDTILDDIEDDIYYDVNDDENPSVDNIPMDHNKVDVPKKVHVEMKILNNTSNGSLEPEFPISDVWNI

[3] = biological target: T2, PF3D7_0800200 (ATS domain, 2,466-2,858 aa)-His (Plasmodium falciparum, UniProt Q8IAK2 2466-2858); assay: BLI; Octet K2; ATS-His loaded onto Ni-NTA biosensors; GST-tagged analyte diluted from 1,000 to 62.5 nM in PBS with 0.02% Tween-20; association and dissociation 5 min each; non-linear global fit; conditions: both partners purified
T2 construct: Cloned into pET-28a; also called ATS-His; PfEMP1 ATS; source: E. coli BL21 (DE3), purified
T2 sequence: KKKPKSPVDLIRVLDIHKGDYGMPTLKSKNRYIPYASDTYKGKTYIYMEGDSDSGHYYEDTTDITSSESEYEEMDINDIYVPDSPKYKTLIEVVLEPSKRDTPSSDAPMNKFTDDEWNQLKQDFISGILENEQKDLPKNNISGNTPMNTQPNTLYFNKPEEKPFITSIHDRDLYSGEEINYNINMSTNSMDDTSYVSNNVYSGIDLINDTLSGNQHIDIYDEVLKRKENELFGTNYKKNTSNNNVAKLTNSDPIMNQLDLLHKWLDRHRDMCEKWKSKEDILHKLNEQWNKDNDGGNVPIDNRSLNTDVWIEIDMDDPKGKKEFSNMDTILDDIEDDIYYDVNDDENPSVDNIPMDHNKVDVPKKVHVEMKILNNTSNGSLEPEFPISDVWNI

Row | Molecule | Kd [1] | koff [2] | kon [2] | Kd [3]
1 | GST | < 0.001 nM | – | – | –
2 | B1 | – | 0.000844 s⁻¹ | 6630 M⁻¹ s⁻¹ | –
3 | B2 | – | – | – | 127 nM
4 | B3 | – | 0.000756 s⁻¹ | 6330 M⁻¹ s⁻¹ | –
5 | B4 | – | – | – | 119 nM
6 | B5 | – | 0.000158 s⁻¹ | 6960 M⁻¹ s⁻¹ | –
7 | B6 | – | – | – | 22.6 nM
